Where no end group is shown, it is not given here. [ ]: non-standard residue; d: D form. The star is where a group is joined. Desaminohistidyl = O=C(CCc1c[nH]cn1)*; Aib = CC(C)(N)C(=O)O
Molecular target: human GLP-1 receptor (human, UniProt P43220)
Assay: cell-based or functional assay

| Binder | CRE luciferase EC50, 0% HSA | CRE luciferase EC50, 1% HSA |
| --- | --- | --- |
| H[Aib]EGTFTSDVSSYLEGEAVKEFIKWLVEKLKEFL-NH2 (N-terminus assumed; SMILES CC[C@H](C)[C@H](NC(=O)[C@H](Cc1ccccc1)NC(=O)[C@H](CCC(=O)O)NC(=O)[C@H](CCCCN)NC(=O)[C@@H](NC(=O)[C@H](C)NC(=O)[C@H](CCC(=O)O)NC(=O)CNC(=O)[C@H](CCC(=O)O)NC(=O)[C@H](CC(C)C)NC(=O)[C@H](Cc1ccc(O)cc1)NC(=O)[C@H](CO)NC(=O)[C@H](CO)NC(=O)[C@@H](NC(=O)[C@H](CC(=O)O)NC(=O)[C@H](CO)NC(=O)[C@@H](NC(=O)[C@H](Cc1ccccc1)NC(=O)[C@@H](NC(=O)CNC(=O)[C@H](CCC(=O)O)NC(=O)C(C)(C)NC(=O)[C@@H](N)Cc1c[nH]cn1)[C@@H](C)O)[C@@H](C)O)C(C)C)C(C)C)C(=O)N[C@@H](CCCCN)C(=O)N[C@@H](Cc1c[nH]c2ccccc12)C(=O)N[C@@H](CC(C)C)C(=O)N[C@H](C(=O)N[C@@H](CCC(=O)O)C(=O)N[C@@H](CCCCN)C(=O)N[C@@H](CC(C)C)C(=O)N[C@@H](CCCCN)C(=O)N[C@@H](CCC(=O)O)C(=O)N[C@@H](Cc1ccccc1)C(=O)N[C@@H](CC(C)C)C(N)=O)C(C)C) [[Aib8,Glu23,Val25,Lys30,Glu34,Lys35,Leu36,Lys37]-GLP-1-(7-37)-peptidyl-Glu-Phe-Leu amide] | 465 pM | 275 pM |
| H[Aib]EGTFTSDVSSYLEGEAVKEFIQWLLEK[Aib]KEFL-NH2 (N-terminus assumed; SMILES CC[C@H](C)[C@H](NC(=O)[C@H](Cc1ccccc1)NC(=O)[C@H](CCC(=O)O)NC(=O)[C@H](CCCCN)NC(=O)[C@@H](NC(=O)[C@H](C)NC(=O)[C@H](CCC(=O)O)NC(=O)CNC(=O)[C@H](CCC(=O)O)NC(=O)[C@H](CC(C)C)NC(=O)[C@H](Cc1ccc(O)cc1)NC(=O)[C@H](CO)NC(=O)[C@H](CO)NC(=O)[C@@H](NC(=O)[C@H](CC(=O)O)NC(=O)[C@H](CO)NC(=O)[C@@H](NC(=O)[C@H](Cc1ccccc1)NC(=O)[C@@H](NC(=O)CNC(=O)[C@H](CCC(=O)O)NC(=O)C(C)(C)NC(=O)[C@@H](N)Cc1c[nH]cn1)[C@@H](C)O)[C@@H](C)O)C(C)C)C(C)C)C(=O)N[C@@H](CCC(N)=O)C(=O)N[C@@H](Cc1c[nH]c2ccccc12)C(=O)N[C@@H](CC(C)C)C(=O)N[C@@H](CC(C)C)C(=O)N[C@@H](CCC(=O)O)C(=O)N[C@@H](CCCCN)C(=O)NC(C)(C)C(=O)N[C@@H](CCCCN)C(=O)N[C@@H](CCC(=O)O)C(=O)N[C@@H](Cc1ccccc1)C(=O)N[C@@H](CC(C)C)C(N)=O) [[Aib8,Glu23,Val25,Gln30,Leu33,Glu34,Lys35,Aib36,Lys37]-GLP-1-(7-37)-peptidyl-Glu-Phe-Leu amide] | 238 pM | 61 pM |
| [Desaminohistidyl][Aib]EGTFTSDVSSYLEGEAVKEFIAWLVEKVKEFL-NH2 (SMILES CC[C@H](C)[C@H](NC(=O)[C@H](Cc1ccccc1)NC(=O)[C@H](CCC(=O)O)NC(=O)[C@H](CCCCN)NC(=O)[C@@H](NC(=O)[C@H](C)NC(=O)[C@H](CCC(=O)O)NC(=O)CNC(=O)[C@H](CCC(=O)O)NC(=O)[C@H](CC(C)C)NC(=O)[C@H](Cc1ccc(O)cc1)NC(=O)[C@H](CO)NC(=O)[C@H](CO)NC(=O)[C@@H](NC(=O)[C@H](CC(=O)O)NC(=O)[C@H](CO)NC(=O)[C@@H](NC(=O)[C@H](Cc1ccccc1)NC(=O)[C@@H](NC(=O)CNC(=O)[C@H](CCC(=O)O)NC(=O)C(C)(C)NC(=O)CCc1c[nH]cn1)[C@@H](C)O)[C@@H](C)O)C(C)C)C(C)C)C(=O)N[C@@H](C)C(=O)N[C@@H](Cc1c[nH]c2ccccc12)C(=O)N[C@@H](CC(C)C)C(=O)N[C@H](C(=O)N[C@@H](CCC(=O)O)C(=O)N[C@@H](CCCCN)C(=O)N[C@H](C(=O)N[C@@H](CCCCN)C(=O)N[C@@H](CCC(=O)O)C(=O)N[C@@H](Cc1ccccc1)C(=O)N[C@@H](CC(C)C)C(N)=O)C(C)C)C(C)C) [[desamino-His7,Aib8,Glu23,Val25,Glu34,Lys35,Val36,Lys37]-GLP-1-(7-37)-peptidyl-Glu-Phe-Leu amide] | 886 pM | 242 pM |
| H[Aib]EGTFTSDVSSYLEGEAVKEFIQWLVEK[Aib]KEFL-NH2 (N-terminus assumed; SMILES CC[C@H](C)[C@H](NC(=O)[C@H](Cc1ccccc1)NC(=O)[C@H](CCC(=O)O)NC(=O)[C@H](CCCCN)NC(=O)[C@@H](NC(=O)[C@H](C)NC(=O)[C@H](CCC(=O)O)NC(=O)CNC(=O)[C@H](CCC(=O)O)NC(=O)[C@H](CC(C)C)NC(=O)[C@H](Cc1ccc(O)cc1)NC(=O)[C@H](CO)NC(=O)[C@H](CO)NC(=O)[C@@H](NC(=O)[C@H](CC(=O)O)NC(=O)[C@H](CO)NC(=O)[C@@H](NC(=O)[C@H](Cc1ccccc1)NC(=O)[C@@H](NC(=O)CNC(=O)[C@H](CCC(=O)O)NC(=O)C(C)(C)NC(=O)[C@@H](N)Cc1c[nH]cn1)[C@@H](C)O)[C@@H](C)O)C(C)C)C(C)C)C(=O)N[C@@H](CCC(N)=O)C(=O)N[C@@H](Cc1c[nH]c2ccccc12)C(=O)N[C@@H](CC(C)C)C(=O)N[C@H](C(=O)N[C@@H](CCC(=O)O)C(=O)N[C@@H](CCCCN)C(=O)NC(C)(C)C(=O)N[C@@H](CCCCN)C(=O)N[C@@H](CCC(=O)O)C(=O)N[C@@H](Cc1ccccc1)C(=O)N[C@@H](CC(C)C)C(N)=O)C(C)C) [[Aib8,Glu23,Val25,Gln30,Glu34,Lys35,Aib36,Lys37]-GLP-1-(7-37)-peptidyl-Glu-Phe-Leu amide] | 83 pM | 42 pM |
| H[Aib]EGTFTSDVSSYLEGEAVREFIAWLVEK[Aib]KEFL-NH2 (N-terminus assumed; SMILES CC[C@H](C)[C@H](NC(=O)[C@H](Cc1ccccc1)NC(=O)[C@H](CCC(=O)O)NC(=O)[C@H](CCCNC(=N)N)NC(=O)[C@@H](NC(=O)[C@H](C)NC(=O)[C@H](CCC(=O)O)NC(=O)CNC(=O)[C@H](CCC(=O)O)NC(=O)[C@H](CC(C)C)NC(=O)[C@H](Cc1ccc(O)cc1)NC(=O)[C@H](CO)NC(=O)[C@H](CO)NC(=O)[C@@H](NC(=O)[C@H](CC(=O)O)NC(=O)[C@H](CO)NC(=O)[C@@H](NC(=O)[C@H](Cc1ccccc1)NC(=O)[C@@H](NC(=O)CNC(=O)[C@H](CCC(=O)O)NC(=O)C(C)(C)NC(=O)[C@@H](N)Cc1c[nH]cn1)[C@@H](C)O)[C@@H](C)O)C(C)C)C(C)C)C(=O)N[C@@H](C)C(=O)N[C@@H](Cc1c[nH]c2ccccc12)C(=O)N[C@@H](CC(C)C)C(=O)N[C@H](C(=O)N[C@@H](CCC(=O)O)C(=O)N[C@@H](CCCCN)C(=O)NC(C)(C)C(=O)N[C@@H](CCCCN)C(=O)N[C@@H](CCC(=O)O)C(=O)N[C@@H](Cc1ccccc1)C(=O)N[C@@H](CC(C)C)C(N)=O)C(C)C) [[Aib8,Glu23,Val25,Arg26,Glu34,Lys35,Aib36,Lys37]-GLP-1-(7-37)-peptidyl-Glu-Phe-Leu amide] | 76 pM | 28 pM |
| H[Aib]EGTFTSDVSSYLEGEAVKEFIAWLLEK[Aib]KEFL-NH2 (N-terminus assumed; SMILES CC[C@H](C)[C@H](NC(=O)[C@H](Cc1ccccc1)NC(=O)[C@H](CCC(=O)O)NC(=O)[C@H](CCCCN)NC(=O)[C@@H](NC(=O)[C@H](C)NC(=O)[C@H](CCC(=O)O)NC(=O)CNC(=O)[C@H](CCC(=O)O)NC(=O)[C@H](CC(C)C)NC(=O)[C@H](Cc1ccc(O)cc1)NC(=O)[C@H](CO)NC(=O)[C@H](CO)NC(=O)[C@@H](NC(=O)[C@H](CC(=O)O)NC(=O)[C@H](CO)NC(=O)[C@@H](NC(=O)[C@H](Cc1ccccc1)NC(=O)[C@@H](NC(=O)CNC(=O)[C@H](CCC(=O)O)NC(=O)C(C)(C)NC(=O)[C@@H](N)Cc1c[nH]cn1)[C@@H](C)O)[C@@H](C)O)C(C)C)C(C)C)C(=O)N[C@@H](C)C(=O)N[C@@H](Cc1c[nH]c2ccccc12)C(=O)N[C@@H](CC(C)C)C(=O)N[C@@H](CC(C)C)C(=O)N[C@@H](CCC(=O)O)C(=O)N[C@@H](CCCCN)C(=O)NC(C)(C)C(=O)N[C@@H](CCCCN)C(=O)N[C@@H](CCC(=O)O)C(=O)N[C@@H](Cc1ccccc1)C(=O)N[C@@H](CC(C)C)C(N)=O) [[Aib8,Glu23,Val25,Leu33,Glu34,Lys35,Aib36,Lys37]-GLP-1-(7-37)-peptidyl-Glu-Phe-Leu amide] | 203 pM | 76 pM |
| H[Aib]EGTFTSDVSSYLEGEAVKEFVAWLVEK[Aib]KEFL-NH2 (N-terminus assumed; SMILES CC(C)C[C@H](NC(=O)[C@H](Cc1ccccc1)NC(=O)[C@H](CCC(=O)O)NC(=O)[C@H](CCCCN)NC(=O)C(C)(C)NC(=O)[C@H](CCCCN)NC(=O)[C@H](CCC(=O)O)NC(=O)[C@@H](NC(=O)[C@H](CC(C)C)NC(=O)[C@H](Cc1c[nH]c2ccccc12)NC(=O)[C@H](C)NC(=O)[C@@H](NC(=O)[C@H](Cc1ccccc1)NC(=O)[C@H](CCC(=O)O)NC(=O)[C@H](CCCCN)NC(=O)[C@@H](NC(=O)[C@H](C)NC(=O)[C@H](CCC(=O)O)NC(=O)CNC(=O)[C@H](CCC(=O)O)NC(=O)[C@H](CC(C)C)NC(=O)[C@H](Cc1ccc(O)cc1)NC(=O)[C@H](CO)NC(=O)[C@H](CO)NC(=O)[C@@H](NC(=O)[C@H](CC(=O)O)NC(=O)[C@H](CO)NC(=O)[C@@H](NC(=O)[C@H](Cc1ccccc1)NC(=O)[C@@H](NC(=O)CNC(=O)[C@H](CCC(=O)O)NC(=O)C(C)(C)NC(=O)[C@@H](N)Cc1c[nH]cn1)[C@@H](C)O)[C@@H](C)O)C(C)C)C(C)C)C(C)C)C(C)C)C(N)=O) [[Aib8,Glu23,Val25,Val29,Glu34,Lys35,Aib36,Lys37]-GLP-1-(7-37)-peptidyl-Glu-Phe-Leu amide] | 111 pM | 36 pM |
| H[Aib]EGTFTSDVSSYLEGEAVREFVQWLLEK[Aib]KEFL-NH2 (N-terminus assumed; SMILES CC(C)C[C@H](NC(=O)[C@H](Cc1ccccc1)NC(=O)[C@H](CCC(=O)O)NC(=O)[C@H](CCCCN)NC(=O)C(C)(C)NC(=O)[C@H](CCCCN)NC(=O)[C@H](CCC(=O)O)NC(=O)[C@H](CC(C)C)NC(=O)[C@H](CC(C)C)NC(=O)[C@H](Cc1c[nH]c2ccccc12)NC(=O)[C@H](CCC(N)=O)NC(=O)[C@@H](NC(=O)[C@H](Cc1ccccc1)NC(=O)[C@H](CCC(=O)O)NC(=O)[C@H](CCCNC(=N)N)NC(=O)[C@@H](NC(=O)[C@H](C)NC(=O)[C@H](CCC(=O)O)NC(=O)CNC(=O)[C@H](CCC(=O)O)NC(=O)[C@H](CC(C)C)NC(=O)[C@H](Cc1ccc(O)cc1)NC(=O)[C@H](CO)NC(=O)[C@H](CO)NC(=O)[C@@H](NC(=O)[C@H](CC(=O)O)NC(=O)[C@H](CO)NC(=O)[C@@H](NC(=O)[C@H](Cc1ccccc1)NC(=O)[C@@H](NC(=O)CNC(=O)[C@H](CCC(=O)O)NC(=O)C(C)(C)NC(=O)[C@@H](N)Cc1c[nH]cn1)[C@@H](C)O)[C@@H](C)O)C(C)C)C(C)C)C(C)C)C(N)=O) | 94 pM | 29 pM |
| HGEGTFTSDVSSYLEGEAVKEFIAWLVEKVKEHL-NH2 [[Gly8,Glu23,Val25,Glu34,Lys35,Val36,Lys37]-GLP-1-(7-37)-peptidyl-Glu-His-Leu amide] | 337 pM | 96 pM |

Source: patent US20150344540A1, “NOVEL GLP-1 RECEPTOR AGONISTS WITH CHOLESTEROL EFFLUX ACTIVITY” (NOVO NORDISK A/S, priority 2012, published 2015)
